Consider 6 substances from article PMC7948426.

This assay deals with NES–Venus–mGsi (nuclear export sequence–Venus–mini G protein mGsi). The assay can be described thus: BRET with mini G protein V-mGsi (net BRET pH profile). The conditions noted are these: read off a plot.
The mark [1] stands for this setting: 150 mM K+ (no Na+), pH 6.5 point.
[2] abbreviates: 150 mM K+ (no Na+), pH 8.5 point.

As to “GPR68–Rluc8 (wild type) (from UniProt Q15743) E149Q”, the response under setting [1] is 0.029 netBRET; the response under setting [2] is 0.026 netBRET; the response (150 mM Na+, pH 6.5 point) is 0.028 netBRET; the response (150 mM Na+, pH 8.5 point) was determined as 0.018 netBRET.

For “GPR4–Rluc8 (wild type) (from UniProt P46093) D63N; D282N”, the response under setting [1] is 0.0057 netBRET; the response under setting [2] stood at 0.0026 netBRET; the response (150 mM Na+, pH 6.5 point) was determined as 0.0068 netBRET; the response (150 mM Na+, pH 8.5 point) came to 0.0022 netBRET.

As for “GPR4–Rluc8 (wild type) (from UniProt P46093) E145Q”, the response runs as follows: under setting [1], 0.032 netBRET; under setting [2], 0.023 netBRET; (150 mM Na+, pH 6.5 point) 0.032 netBRET; (150 mM Na+, pH 8.5 point) 0.013 netBRET.

For the substance “GPR65–Rluc8 (wild type) (from UniProt Q8IYL9) D60N; D286N”, the response turned out to be 0.033 netBRET under setting [1]; 0.019 netBRET under setting [2]; 0.032 netBRET (150 mM Na+, pH 6.5 point); 0.02 netBRET (150 mM Na+, pH 8.5 point).

In the case of “GPR65–Rluc8 (wild type) (from UniProt Q8IYL9) E142Q”, the response under setting [1] stood at 0.063 netBRET; the response under setting [2] is 0.052 netBRET; the response (150 mM Na+, pH 6.5 point) came to 0.06 netBRET; the response (150 mM Na+, pH 8.5 point) stood at 0.034 netBRET.

Take “GPR68–Rluc8 (wild type) (from UniProt Q15743) D67N; D282N”: the response amounted to 0.0073 netBRET under setting [1]; 0.0037 netBRET under setting [2]; 0.006 netBRET (150 mM Na+, pH 6.5 point); 0.0023 netBRET (150 mM Na+, pH 8.5 point).
